Publication PMC2815779, “Structure and Kinetic Investigation of Streptococcus pyogenes Family GH38 α-Mannosidase” (PLoS ONE, 2010)

Experiments:
purified protein [1] = substrate: Cc1cc(=O)oc2cc(O[C@H]3O[C@H](CO)[C@@H](O)[C@H](O)[C@@H]3O)ccc12; assay: purified protein; type: biochemical, Streptococcus pyogenes; settings: Zn2+
purified protein [2] = substrate: OC[C@H]1O[C@H](O[C@H]2[C@H](O)[C@@H](CO)OC(O)[C@H]2O)[C@@H](O)[C@@H](O)[C@@H]1O; assay: purified protein; type: biochemical, Streptococcus pyogenes; settings: Zn2+

B1: SpGH38 (Spy1604), family GH38 α-mannosidase (Streptococcus pyogenes serotype M1) (protein)
chain: MATKKVHIISHSHWDREWYMAYEQHHMRLINLIDDLLEVFQTDPDFHSFHLDGQTIILDDYLKVRPEREPEIRQAIASGKLRIGPFYILQDDFLTSSESNVRNMLIGKEDCDRWGASVPLGYFPDTFGNMGQTPQLMLKAGLQAAAFGRGIRPTGFNNQVDTSEKYSSQFSEISWQGPDNSRILGLLFANWYSNGNEIPTTEAEARLFWDKKLADAERFASTKHLLMMNGCDHQPVQLDVTKAIALANQLYPDYEFVHSCFEDYLADLADDLPENLSTVQGEITSQETDGWYTLANTASARIYLKQANTRVSRQLENITEPLAAMAYEVTSTYPHDQLRYAWKTLMQNHPHDSICGCSVDSVHREMMTRFEKAYEVGHYLAKEAAKQIADAIDTRDFPMDSQPFVLFNTSGHSKTSVAELSLTWKKYHFGQRFPKEVYQEAQEYLARLSQSFQIIDTSGQVRPEAEILGTSIAFDYDLPKRSFREPYFAIKVRLRLPITLPAMSWKTLALKLGNETTPSETVSLYDDSNQCLENGFLKVMIQTDGRLTITDKQSGLIYQDLLRFEDCGDIGNEYISRQPNHDQPFYADQGTIKLNIISNTAQVAELEIQQTFAIPISADKLLQAEMEAVIDITERQARRSQEKAELTLTTLIRMEKNNPRLQFTTRFDNQMTNHRLRVLFPTHLKTDHHLADSIFETVKRPNHPDATFWKNPSNPQHQECFVSLFDGENGVTIGNYGLNEYEILPDTNTIAITLLRSVGEMGDWGYFPTPEAQCLGKHSLSYSFESITKQTQFASYWRAQEGQVPVITTQTNQHEGTLAAEYSYLTGTNDQVALTAFKRRLADNALITRSYNLSNDKTCDFSLSLPNYNAKVTNLLEKDSKQSTPSQLGKAEILTLAWKKQ
notes: full length, residues 1-901, N-terminal His6-tag
- Km (purified protein [1]): 3.6 ± 1.0 mM
- Km (purified protein [2]): 27 ± 0.75 mM
